# Assay results from publication PMC5818060.
# What was measured:
# [1] = biological target: His-DDX3X^414-582 (human) (UniProt O00571); assay: fluorescence thermal shift (FTS) assay; FTS with varying concentrations of peptide; melting temperatures fitted to single site or simple cooperative ligand binding, preferred model chosen
# [2] = biological target: His-DDX3X^414-582 (human) (UniProt O00571); assay: fluorescence thermal shift (FTS) assay; 10 µM His-DDX3X^414-582, 20 µM peptide, 50 mM HEPES pH 8, 10x SYPRO-Orange; change of melting temperature
# His-DDX3X^414-582 (human), sequence (O00571 414-582): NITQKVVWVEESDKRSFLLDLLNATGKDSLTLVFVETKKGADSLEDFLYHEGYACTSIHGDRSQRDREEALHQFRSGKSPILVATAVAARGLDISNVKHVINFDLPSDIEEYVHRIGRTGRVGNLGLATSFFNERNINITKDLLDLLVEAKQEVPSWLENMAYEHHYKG
substance,measurement,setting,value
CK1δ-derived peptide δ-41 (from UniProt P48730 41-55),Kd,[1],5.49 µM
same,increase of the melting temperature (Tm) of His-DDX3X^414-582,[2],5 °C
